Results taken from article doi:10.1101/2020.01.30.926501 (bioRxiv, 2020).

Target: the molecule itself
Assay: single-molecule GFP fluorescence intensity

B1: Kif14(768)-eGFP (domain or fragment, human, UniProt Q15058 1-768, looked up)
chain: MSLHSTHNRNNSGDILDIPSSQNSSSLNALTHSSRLKLHLKSDMSECENDDPLLRSAGKVRDINRTYVISASRKTADMPLTPNPVGRLALQRRTTRNKESSLLVSELEDTTEKTAETRLTLQRRAKTDSAEKWKTAEIDSVKMTLNVGGETENNGVSKESRTNVRIVNNAKNSFVASSVPLDEDPQVIEMMADKKYKETFSAPSRANENVALKYSSNRPPIASLSQTEVVRSGHLTTKPTQSKLDIKVLGTGNLYHRSIGKEIAKTSNKFGSLEKRTPTKCTTEHKLTTKCSLPQLKSPAPSILKNRMSNLQVKQRPKSSFLANKQERSAENTILPEEETVVQNTSAGKDPLKVENSQVTVAVRVRPFTKREKIEKASQVVFMSGKEITVEHPDTKQVYNFIYDVSFWSFDECHPHYASQTTVYEKLAAPLLERAFEGFNTCLFAYGQTGSGKSYTMMGFSEEPGIIPRFCEDLFSQVARKQTQEVSYHIEMSFFEVYNEKIHDLLVCKDENGQRKQPLRVREHPVYGPYVEALSMNIVSSYADIQSWLELGNKQRATAATGMNDKSSRSHSVFTLVMTQTKTEFVEGEEHDHRITSRINLIDLAGSERCSTAHTNGDRLKEGVSINKSLLTLGKVISALSEQANQRSVFIPYRESVLTWLLKESLGGNSKTAMIATISPAASNIEETLSTLRYANQARLIVNIAKVNEDMNAKLIRELKAEIAKLKAAQRNSRNIDPERYRLCRQEITSLRMKLHQQERDMAEMQRV
- stoichiometry N: 2

B2: Kif5b-GFP (domain or fragment, human, UniProt P33176 1-905, looked up)
chain: MADLAECNIKVMCRFRPLNESEVNRGDKYIAKFQGEDTVVIASKPYAFDRVFQSSTSQEQVYNDCAKKIVKDVLEGYNGTIFAYGQTSSGKTHTMEGKLHDPEGMGIIPRIVQDIFNYIYSMDENLEFHIKVSYFEIYLDKIRDLLDVSKTNLSVHEDKNRVPYVKGCTERFVCSPDEVMDTIDEGKSNRHVAVTNMNEHSSRSHSIFLINVKQENTQTEQKLSGKLYLVDLAGSEKVSKTGAEGAVLDEAKNINKSLSALGNVISALAEGSTYVPYRDSKMTRILQDSLGGNCRTTIVICCSPSSYNESETKSTLLFGQRAKTIKNTVCVNVELTAEQWKKKYEKEKEKNKILRNTIQWLENELNRWRNGETVPIDEQFDKEKANLEAFTVDKDITLTNDKPATAIGVIGNFTDAERRKCEEEIAKLYKQLDDKDEEINQQSQLVEKLKTQMLDQEELLASTRRDQDNMQAELNRLQAENDASKEEVKEVLQALEELAVNYDQKSQEVEDKTKEYELLSDELNQKSATLASIDAELQKLKEMTNHQKKRAAEMMASLLKDLAEIGIAVGNNDVKQPEGTGMIDEEFTVARLYISKMKSEVKTMVKRCKQLESTQTESNKKMEENEKELAACQLRISQHEAKIKSLTEYLQNVEQKKRQLEESVDALSEELVQLRAQEKVHEMEKEHLNKVQTANEVKQAVEQQIQSHRETHQKQISSLRDEVEAKAKLITDLQDQNQKMMLEQERLRVEHEKLKATDQEKSRKLHELTVMQDRREQARQDLKGLEETVAKELQTLHNLRKLFVQDLATRVKKSAEIDSDDTGGSAAQKQKISFLENNLEQLTKVHKQLVRDNADLRCELPKLEKRLRATAERVKALESALKEAKENASRDRKRYQQEVDRIKEA
- stoichiometry N: 2
